Among the data in the supplement of paper PMC12042874 are amyloid nucleation score values, retold here.

± gives the uncertainty stated by the source.

This data set is described as follows: amyloid nucleation score (Sup35N fusion, yeast selection) (log enrichment); library NNK2; higher = more nucleation; inactive = no reads after selection. The method, boiled down: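 Three technical output replicates were used for random libraries. Psi-negative yeast expressing peptides of 20 random codons fused to Sup35N were induced with 100 μM copper sulfate for 24 hours and grown 7 days at 30°C on medium lacking adenine and uracil, and input and output plasmid inserts were Illumina-sequenced, excluding sequences with under 100 input reads. The nucleation score is the DiMSum log enrichment of output over input reads, centred on the mode score of non-aggregating sequences.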
Consider HHWRGALGFVCWGRFEERWV, for which the amyloid nucleation score was -0.567 ± 0.23.

The substance RLSYWFIKELGNTSDYDRAP registered an amyloid nucleation score of -0.541 ± 0.76. For the substance DVVMG, the amyloid nucleation score stood at 0.701 ± 0.51. The same measure for SGTALTRAESSTLMFNRNYR: 0.106 ± 0.41; for HFITCFLDRHGALVCYCSES: 4.76 ± 0.11.

GVSSKKV gave an amyloid nucleation score of 4.768 ± 0.047.

With NAWDVTKSYQHVHSCSIMLV, the amyloid nucleation score result was “inactive”. For LSFRGDSR, the amyloid nucleation score turned out to be 0.243 ± 0.26. The substance AEAWGVFYHWHDT had an amyloid nucleation score of -0.493 ± 0.53. Under FSDDLVRDV stands -0.505 ± 0.28. Under RIKGSGGPNVLGWFRMVLCS stands 0.284 ± 1.1; under DSGCKFAAPCSVYPLFLFDM, -0.788 ± 1.1; under TMRVHRYRTN, -0.493 ± 0.63. Under GIRLGSNDQSVYSRPNV stands 1.46 ± 0.35; under NIYADNARVWLPRGDRGLEW, 0.799 ± 0.74. On to APNMKSNLYFPEVRLNEGSR, for which the amyloid nucleation score was 0.714 ± 0.53. Consider CMCENTYNRRIKVRYEWLKW, for which the amyloid nucleation score was -0.619 ± 0.21. The substance LVPGYWYMWVTGNVKRVFCD showed an amyloid nucleation score of -1.54 ± 0.62.

With YLTISIAGVVLNLFVIACIV, the amyloid nucleation score stood at 0.757 ± 0.4. Under LRAWLSSLAHTKRRCELGTP stands 0.575 ± 0.3; under TTSGNTIHIYVIQLSIQKFS, 5.39 ± 0.06. For the substance CFFLYIRHFAMYCA, the amyloid nucleation score is 1.65 ± 0.17. The same measure for YEPCLRSQNVSS: 0.112 ± 0.79. STWCRMANYLITCFVTKSRV gave an amyloid nucleation score of -1.33 ± 1.1. Under CSNYFLSEELRHSVEVGSES stands 0.463 ± 0.18; under RKCFDRRDYIPKIGQIRMSC, -0.48 ± 0.39; under IICSNRQIRFKKGDFFIVFW, “inactive”.

MYCETLRRSILMVNMNPRNP had an amyloid nucleation score of -0.114 ± 0.31. The same measure for SPCMCGYITINSLRPLLTFS: 5.797 ± 0.03; for LQRRCLINKNTGTPRLSN: -0.358 ± 1. Under IVHWSLHFMRGKSAYYQYVV stands “inactive”; under MQYCLGFDLNLRNYICHPGR, 7.303 ± 0.063. On to LCWFSNRSRLEEVS, for which the amyloid nucleation score result is “inactive”. In turn, LNLQSLTSHTVKGL gave an amyloid nucleation score of 0.147 ± 0.54. Under IYNMVSCIIDLCYDKTRHSR stands 3.85 ± 0.12; under EQRGLASCLTIHHSRWCYTK, 0.025 ± 0.33. Under YVQTSKCGS stands 7.1 ± 0.055; under FLSLLR, -1.05 ± 0.42.

Substance ARVALRLIYDMDRVLWPDSY came in with an amyloid nucleation score of 5 ± 0.067. For VCKMSSLNLCKRP, the amyloid nucleation score was -0.133 ± 1.

Turning to AEAISQLEAMR, the amyloid nucleation score amounted to 1.13 ± 0.39. For LSGDNCPRV, the amyloid nucleation score is -0.342 ± 0.49. The same measure for SNSGINHIRCCLYPLFYLIM: 2.35 ± 0.13. Substance IYHFNFIFNYLMGDPPYRAT had an amyloid nucleation score of 7.778 ± 0.04. PRCNGHY: the amyloid nucleation score entry is “inactive”. Take ANQSVYLAEAVYQAGIEGRD: the amyloid nucleation score is 0.358 ± 0.24. As for RVRSSLVDLASVGSILLTAR, the amyloid nucleation score was -0.264 ± 0.41. The substance VMTFMVTRTD gave an amyloid nucleation score of 6.111 ± 0.037. As to CAINPKVKRSFLVI, the amyloid nucleation score is -1.73 ± 1.1. The same measure for LIRKFRVVVMFSYVQVLPVI: 0.173 ± 1.1; for PRQHYSNRGFCFSFILGVGM: -0.327 ± 0.34; for FEWSTGCG: “inactive”. Under SKFHIVIWSSAFFGCNCRLA stands 6.78 ± 0.079. MVHHGGCAWMSSACTCNVHC: the amyloid nucleation score turned out to be 0.313 ± 0.27. Under KSRFML stands 0.627 ± 0.57. On to NGAYNACNNTGYRTHAY, for which the amyloid nucleation score was -0.818 ± 0.78.

Substance AVKCGNGSEF had an amyloid nucleation score of -0.066 ± 0.45.

Substance GWSSSGVVIRVPGSFRLVGR registered an amyloid nucleation score of 1.39 ± 0.45. For SYLHNSN, the amyloid nucleation score was -1.26 ± 0.78. Consider RCKCNAIEVT, for which the amyloid nucleation score stood at 0.565 ± 0.2. Under ILPISVLVDHINWSDPYFIM stands 0.035 ± 1; under CRVYMVDWGVVLRFDVRGSS, -0.909 ± 0.78. ISCGVSLPIANCTMTHIARV: the amyloid nucleation score is -0.23 ± 0.49. Under CNRLVVLSSCNWYRDVADSL stands 0.115 ± 1; under YLKRPRPRRLGSP, 0.405 ± 0.33; under GNHSAVAPS, -0.677 ± 0.38. Under ANLCSAT stands -0.799 ± 0.44; under LLSIYVSSWKLRGSAPG, -0.337 ± 0.63; under ICGCKRSTVLWVSCFGV, 3.18 ± 0.12. On to WAGRCDHK, for which the amyloid nucleation score came to 0.227 ± 0.25. In the case of RTPFEDKVSIGDDSRSRADL, the amyloid nucleation score is 0.414 ± 0.41. Take DSPQHHECIMVWL: the amyloid nucleation score is 4.38 ± 0.064.

The substance LDINIFM yielded an amyloid nucleation score of -0.304 ± 1.1. The same measure for NNWYQTGSVAEASIEPSSMQ: 1.6 ± 0.41; for KYMRLSSPAGSAVPLWTLYL: 0.148 ± 1; for SAVNHTYVGD: 0.122 ± 1.1. Under FYLSLLYGRSRQIGLLIYFQ stands 0.974 ± 0.15; under IVQFYYVMQYRFRYCLDRMH, 1.01 ± 0.34. Consider YPISLWLFYGGSGAQTLVVR, for which the amyloid nucleation score was determined as 2.51 ± 0.1.

QAGALFDKRQGLRYGWVVSM: the amyloid nucleation score is -0.641 ± 0.41. As for VCVRTTWRKDGSISCTHKSP, the amyloid nucleation score is 0.5 ± 0.18. Substance LILRSVSNYAITIMFAFDTR showed an amyloid nucleation score of 4.39 ± 0.096. The same measure for SFKFFTVQF: 6.66 ± 0.088. In turn, CRFKVQQMTMENLAQMLVKG came in with an amyloid nucleation score of 1.15 ± 0.68. The substance FSACFGCFVLAKSNHY showed an amyloid nucleation score of 0.955 ± 0.25. The same measure for NAFGTSFCEIMRR: 1.22 ± 0.33; for GAPSHFCEFCSYSAAKEEYE: “inactive”. The same measure for HWLTKISGTTPELYPRERVV: 0.071 ± 0.25; for EIVLFFCPVVKCME: 3.08 ± 0.098; for SGSRMFCVRHMIMSGGVLGS: -0.451 ± 0.54. As to VLDVVLYPGKF, the amyloid nucleation score amounted to 0.176 ± 0.26.

As to VDQCPYRFKFRVSYMMVFYM, the amyloid nucleation score worked out at 5.67 ± 0.086. Under WLFSVSISGREDMMWSGLLE stands 0.061 ± 0.4; under QMNVSTYSCNLD, 0.044 ± 1.1. In turn, CHPLEMWFFFSLGGFGVSMT registered an amyloid nucleation score of -1.54 ± 1.1. The same measure for HAYYHLILDVLFPDGLWL: -0.938 ± 0.36. Under GGSKTRLFL stands -0.263 ± 1.1. AQGSRDSNRRVEASACY showed an amyloid nucleation score of -0.09 ± 0.63. Under VFGPPWCLGHSHWILFYVGC stands -0.519 ± 1; under QVKFLRDFEGFCMMMKHSSR, -0.395 ± 0.26. Substance RTDRSYRGLKPVVLVTQWGG came in with an amyloid nucleation score of -0.106 ± 0.63.

The substance MPTIRNWVCW had an amyloid nucleation score of 0.639 ± 0.47. Under LCCLMDFMITNLITFQRMTS stands 4.33 ± 0.11; under MTYYRAYFAYLWVVRLWL, 0.029 ± 0.32. The same measure for AWSLDVTTM: 0.051 ± 0.27; for NAKCNSTGKTCQFGCQYP: 1.51 ± 0.39; for PVLIVLYDIGSCKERKE: 0.134 ± 0.55.

For IWFGVYIYFVDFRVILNRLL, the amyloid nucleation score entry was “inactive”.

LAAVLVHAWFVKRLRMPNHH returned an amyloid nucleation score of 0.93 ± 0.44. TMQSWFSAFYLVVDMPTRYC showed an amyloid nucleation score of -0.232 ± 0.29. Under VMSDGMYTGKAYSLVLDMRI stands “inactive”; under RVGTLSWTRAFVFLGYGMVQ, -0.044 ± 0.48. The same measure for FKKAMHKPKSWAFSEKGRTN: -1.27 ± 0.61; for QVSLMKVGWITMTPLGLHSL: 4.03 ± 0.069. Under VKLIETSLLSFLIE stands -0.33 ± 0.76; under ERFRIGTCSIRCSYILGLRR, -0.898 ± 0.54.

Take FIIIVLNNSVFRMKCALASI: the amyloid nucleation score is -0.202 ± 1.1.

As for SEVLNVFA, the amyloid nucleation score was -1.14 ± 0.34.

For the substance VHEPAQV, the amyloid nucleation score came to 0.352 ± 0.35. The same measure for SCTHLDW: “inactive”; for SVLER: -0.147 ± 1.1; for SSGRGIRLTLTVSIDRKKMG: -0.391 ± 0.4. The same measure for IQLIQML: 0.27 ± 0.57; for MPQSSRFCTNSFGNRHRRSW: -0.343 ± 1.1. The same measure for NNSYIRLS: -0.883 ± 0.45.

On to VEMKGRWLIVNRRLGVSPQA, for which the amyloid nucleation score worked out at 0.097 ± 0.35.

SGLCSCTVACVGFVHFDARV registered an amyloid nucleation score of 5.38 ± 0.084.

For the substance VINGVHLSRVLYNPILEFIT, the amyloid nucleation score result was “inactive”. The same measure for ILSFTGASNFVCYMIVAKAG: 6.386 ± 0.033; for TGDCC: 0.32 ± 0.33.

VLRYLDFDYRLELFIYVMHR displayed an amyloid nucleation score of -1.48 ± 1.1.

VLNITEIYFVG had an amyloid nucleation score of 8.125 ± 0.051. In turn, SSLGA had an amyloid nucleation score of -0.059 ± 0.5. Turning to GPLFHTTRLRDNHM, the amyloid nucleation score came to 3.11 ± 0.11. ICQCPVNTANTQLGVGTRLK showed an amyloid nucleation score of 0.114 ± 0.5.

In turn, GMVNIYDLCYMLLY had an amyloid nucleation score of -1.21 ± 0.31. Under WQTEFIYSQVSTVGYKRLEG stands 2.38 ± 0.089; under MGMAHFDSQPLGYILGASMC, -0.727 ± 0.79. The same measure for NRTSYQNLIDNATTVSIMF: 1.55 ± 0.22; for WMSFTHLLNTIAVMSYLTVL: -0.249 ± 0.25; for FSMLF: -0.462 ± 0.56.
